The target of the test is T1, UNC-40 ECD (C. elegans, UniProt G5EF96 23-1082).
T1 sequence (looked up): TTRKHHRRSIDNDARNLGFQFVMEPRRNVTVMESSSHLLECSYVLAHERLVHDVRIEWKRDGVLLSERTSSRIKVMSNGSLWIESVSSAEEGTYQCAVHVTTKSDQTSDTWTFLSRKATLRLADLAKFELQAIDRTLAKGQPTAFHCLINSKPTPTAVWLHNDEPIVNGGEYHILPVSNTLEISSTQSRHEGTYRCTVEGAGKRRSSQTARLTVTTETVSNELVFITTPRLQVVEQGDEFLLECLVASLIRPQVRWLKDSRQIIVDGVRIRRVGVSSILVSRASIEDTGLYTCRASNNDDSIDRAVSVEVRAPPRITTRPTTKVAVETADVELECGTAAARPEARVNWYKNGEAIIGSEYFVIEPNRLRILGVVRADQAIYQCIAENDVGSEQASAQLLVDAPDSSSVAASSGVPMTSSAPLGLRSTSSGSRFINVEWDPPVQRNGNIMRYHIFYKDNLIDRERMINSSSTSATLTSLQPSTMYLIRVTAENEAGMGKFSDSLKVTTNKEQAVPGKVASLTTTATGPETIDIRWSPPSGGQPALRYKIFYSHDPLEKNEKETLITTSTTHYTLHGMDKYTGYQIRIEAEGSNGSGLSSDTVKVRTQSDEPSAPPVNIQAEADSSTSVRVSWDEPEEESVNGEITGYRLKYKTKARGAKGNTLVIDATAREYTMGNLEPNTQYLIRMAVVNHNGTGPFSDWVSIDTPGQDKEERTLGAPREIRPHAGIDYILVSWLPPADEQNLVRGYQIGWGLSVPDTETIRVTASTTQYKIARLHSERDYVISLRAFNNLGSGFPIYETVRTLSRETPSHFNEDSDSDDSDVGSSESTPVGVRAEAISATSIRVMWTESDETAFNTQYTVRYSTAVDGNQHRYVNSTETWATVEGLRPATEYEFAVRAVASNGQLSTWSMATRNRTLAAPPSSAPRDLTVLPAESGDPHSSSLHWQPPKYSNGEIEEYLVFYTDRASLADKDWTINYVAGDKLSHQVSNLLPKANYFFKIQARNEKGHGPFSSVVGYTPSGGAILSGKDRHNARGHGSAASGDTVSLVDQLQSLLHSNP
Kind of test: SEC.

B1: UNC-6ΔC (ligand)
chain: not shown
For B1, the binding result was “binds”.

For the origin of these results see publication PMC10871540 (Science Advances, 2024).
